Assay results taken from US20100260668A1 (published 2010).
Where “and” joins values, the source holds several entries; their conditions need not be identical. Equal entries are not always repeated.

Experiments:
VEGF = molecular target: T1, VEGF (UniProt P15692 27-191, limits assumed); test: direct bind ELISA, reference antibody
T1 construct: bought antigen coated on the ELISA plate

CD-19 [1] = molecular target: T2, CD-19 (UniProt P15391 20-291, limits assumed); test: Direct Bind ELISA, antigen on plate; C-terminal VD
T2 construct: construct unknown
T2 sequence (looked up): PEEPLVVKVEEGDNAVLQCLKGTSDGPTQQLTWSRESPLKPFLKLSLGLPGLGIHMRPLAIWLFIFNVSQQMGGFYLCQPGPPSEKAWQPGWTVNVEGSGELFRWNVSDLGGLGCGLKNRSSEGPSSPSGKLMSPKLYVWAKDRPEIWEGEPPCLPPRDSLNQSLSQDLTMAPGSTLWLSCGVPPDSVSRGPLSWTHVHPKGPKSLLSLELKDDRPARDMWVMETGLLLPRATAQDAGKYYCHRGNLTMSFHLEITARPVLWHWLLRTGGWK
Protocol: (§1) Enzyme Linked Immunosorbent Assays to screen for antibodies that bind a desired target antigen were performed as follows. […] Plates were washed four times with PBS containing 0.02% Tween 20. Plates were blocked by the addition of 300 μL/well blocking solution (non-fat dry milk powder, various retail suppliers, diluted to 2% in PBS) for ½ hour at room temperature. Plates were washed four times after blocking with PBS containing 0.02% Tween 20.
(§2) Alternatively, one hundred microliters per well of 10 μg/ml of Histidine (His) tagged desired target antigen (R&D Systems, Minneapolis, Minn.) was added to ELISA plates coated with monoclonal mouse anti-polyHistidine antibody as described above and incubated for 1 hour at room temperature. Wells were washed four times with PBS containing 0.02% Tween 20.
(§3) One hundred microliters of antibody or DVD-Ig preparations diluted in blocking solution as described above was added to the desired target antigen plate or desired target antigen/FC fusion plate or the anti-polyHistidine antibody/His tagged desired target antigen plate prepared as described above and incubated for 1 hour at room temperature. Wells are washed four times with PBS containing 0.02% Tween 20.

CD-19 [2] = molecular target: T2, CD-19; test: Direct Bind ELISA, antigen on plate; N-terminal VD
Protocol: as §1, §2, §3

[3] = molecular target: CD80/FC (B7-1 ECD/FC chimera) (UniProt P33681 35-242); test: Direct Bind ELISA, antigen on plate
Protocol: as §1, §2, §3

[4] = molecular target: CD22/FC (Siglec-2 ECD/FC chimera) (UniProt P20273 20-687); test: Direct Bind ELISA, antigen on plate
Protocol: as §1, §2, §3

[5] = molecular target: T3, CD40/FC (CD40 ECD/FC chimera-His tag) (UniProt P25942 21-193, limits assumed); test: Direct Bind ELISA, antigen on plate
T3 construct: extracellular domain; Bought reagent
Protocol: as §1, §2, §3

[6] = molecular target: T3, CD40/FC (CD40 ECD/FC chimera-His tag); test: Direct Bind ELISA, antigen on plate; C-terminal VD
Protocol: as §1, §2, §3

[7] = molecular target: T3, CD40/FC (CD40 ECD/FC chimera-His tag); test: Direct Bind ELISA, antigen on plate; N-terminal VD
Protocol: as §1, §2, §3

T3 sequence (P25942 21-193 limits assumed, change not shown): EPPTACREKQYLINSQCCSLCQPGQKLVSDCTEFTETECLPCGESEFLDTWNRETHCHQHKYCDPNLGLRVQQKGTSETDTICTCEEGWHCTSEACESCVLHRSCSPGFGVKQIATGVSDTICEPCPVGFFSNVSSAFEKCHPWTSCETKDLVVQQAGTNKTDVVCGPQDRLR
T1 sequence (P15692 other isoform, or with tags, fused parts or gaps limits assumed): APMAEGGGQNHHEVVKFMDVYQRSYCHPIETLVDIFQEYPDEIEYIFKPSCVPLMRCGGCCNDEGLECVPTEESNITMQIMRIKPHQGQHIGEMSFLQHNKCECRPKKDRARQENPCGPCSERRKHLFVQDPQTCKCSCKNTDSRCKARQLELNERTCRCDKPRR
Chain of CD80/FC (B7-1 ECD/FC chimera) (P33681 35-242, change not shown): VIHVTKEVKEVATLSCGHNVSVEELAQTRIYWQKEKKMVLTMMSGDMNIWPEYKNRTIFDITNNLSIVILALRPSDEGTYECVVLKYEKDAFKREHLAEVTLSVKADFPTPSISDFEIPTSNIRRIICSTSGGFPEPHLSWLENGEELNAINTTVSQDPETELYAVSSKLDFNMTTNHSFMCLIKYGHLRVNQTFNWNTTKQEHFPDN

B1: AB071 (antibody, human IgG1, kappa, L234A L235A, V domains shown)
VH: EVQLVESGGGLVQPGGSLRLSCAASGFTINASWIHWVRQAPGKGLEWVGAIYPYSGYTNYADSVKGRFTISADTSKNTAYLQMNSLRAEDTAVYYCARWGHSTSPWAMDYWGQGTLVTVSS
VL: DIQMTQSPSSLSASVGDRVTITCRASQVIRRSLAWYQQKPGKAPKLLIYAASNLASGVPSRFSGSGSGTDFTLTISSLQPEDFATYYCQQSNTSPLTFGQGTKVEIKR
- EC50 (VEGF): 35.4 nM and 26.6 nM

B2: DVD001 (CD-20 and CD-19 DVD-Ig) (bispecific antibody, IgG1)
VH: QVQLQQPGAELVKPGASVKMSCKASGYTFTSYNMHWVKQTPGRGLEWIGAIYPGNGDTSYNQKFKGKATLTADKSSSTAYMQLSSLTSEDSAVYYCARSTYYGGDWYFNVWGAGTTVTVSAASTKGPQVQLQQSGAELVRPGSSVKISCKASGYAFSSYWMNWVKQRPGQGLEWIGQIWPGDGDTNYNGKFKGKATLTADESSSTAYMQLSSLASEDSAVYFCARRETTTVGRYYYAMDYWGQGTSVTVSS
VL: QIVLSQSPAILSPSPGEKVTMTCRASSSVSYIHWFQQKPGSSPKPWIYATSNLASGVPVRFSGSGSGTSYSLTISRVEAEDAATYYCQQWTSNPPTFGGGTKLEIKRTVAAPDILLTQTPASLAVSLGQRATISCKASQSVDYDGDSYLNWYQQIPGQPPKLLIYDASNLVSGIPPRFSGSGSGTDFTLNIHPVEKVDAATYHCQQSTEDPWTFGGGTKLEIKR
notes: Outer AB001, inner AB006; HC vector V1 (wild-type hIgG1 constant), LC vector V2 (kappa constant); also called DVD001H; DVD001L
- EC50 (CD-19 [1]): 12.9 nM

B3: DVD002 (CD-19 and CD-20 DVD-Ig) (bispecific antibody, IgG1)
VH: QVQLQQSGAELVRPGSSVKISCKASGYAFSSYWMNWVKQRPGQGLEWIGQIWPGDGDTNYNGKFKGKATLTADESSSTAYMQLSSLASEDSAVYFCARRETTTVGRYYYAMDYWGQGTSVTVSSASTKGPQVQLQQPGAELVKPGASVKMSCKASGYTFTSYNMHWVKQTPGRGLEWIGAIYPGNGDTSYNQKFKGKATLTADKSSSTAYMQLSSLTSEDSAVYYCARSTYYGGDWYFNVWGAGTTVTVSA
VL: DILLTQTPASLAVSLGQRATISCKASQSVDYDGDSYLNWYQQIPGQPPKLLIYDASNLVSGIPPRFSGSGSGTDFTLNIHPVEKVDAATYHCQQSTEDPWTFGGGTKLEIKRTVAAPQIVLSQSPAILSPSPGEKVTMTCRASSSVSYIHWFQQKPGSSPKPWIYATSNLASGVPVRFSGSGSGTSYSLTISRVEAEDAATYYCQQWTSNPPTFGGGTKLEIKR
notes: Outer AB006, inner AB001; HC vector V1 (wild-type hIgG1 constant), LC vector V2 (kappa constant); also called DVD002H; DVD002L
- EC50 (CD-19 [2]): 0.07 nM

B4: AB007 (anti-CD-80 parent antibody) (antibody, IgG1, V domains shown)
VH: QVQLQESGPGLVKPSETLSLTCAVSGGSISGGYGWGWIRQPPGKGLEWIGSFYSSSGNTYYNPSLKSQVTISTDTSKNQFSLKLNSMTAADTAVYYCVRDRLFSVVGMVYNNWFDVWGPGVLVTVSS
VL: ESALTQPPSVSGAPGQKVTISCTGSTSNIGGYDLHWYQQLPGTAPKLLIYDINKRPSGISDRFSGSKSGTAASLAITGLQTEDEADYYCQSYDSSLNAQVFGGGTRLTVLG
notes: HC vector V1 (wild-type hIgG1 constant), LC vector V3 (lambda constant); also called AB007VH; AB007VL
- EC50 [3]: 0.77 nM

B5: AB008 (anti-CD-22 parent antibody) (antibody, IgG1, V domains shown)
VH: QVQLVQSGAEVKKPGSSVKVSCKASGYTFTSYWLHWVRQAPGQGLEWIGYINPRNDYTEYNQNFKDKATITADESTNTAYMELSSLRSEDTAFYFCARRDITTFYWGQGTTVTVSS
VL: DIQLTQSPSSLSASVGDRVTMSCKSSQSVLYSANHKNYLAWYQQKPGKAPKLLIYWASTRESGVPSRFSGSGSGTDFTFTISSLQPEDIATYYCHQYLSSWTFGGGTKLEIKR
notes: HC vector V1 (wild-type hIgG1 constant), LC vector V2 (kappa constant); also called AB008VH; AB008VL
- EC50 [4]: 3.44 nM

B6: AB009 (anti-CD-40 parent antibody) (antibody, IgG1, V domains shown)
VH: QVQLVESGGGVVQPGRSLRLSCAASGFTFSSYGMHWVRQAPGKGLEWVAVISYEESNRYHADSVKGRFTISRDNSKITLYLQMNSLRTEDTAVYYCARDGGIAAPGPDYWGQGTLVTVSS
VL: DIVMTQSPLSLTVTPGEPASISCRSSQSLLYSNGYNYLDWYLQKPGQSPQVLISLGSNRASGVPDRFSGSGSGTDFTLKISRVEAEDVGVYYCMQARQTPFTFGPGTKVDIRR
notes: HC vector V1 (wild-type hIgG1 constant), LC vector V2 (kappa constant); also called AB009VH; AB009VL
- EC50 [5]: 0.99 nM

B7: DVD009 (CD-20 and CD-40 DVD-Ig) (bispecific antibody, IgG1)
VH: QVQLQQPGAELVKPGASVKMSCKASGYTFTSYNMHWVKQTPGRGLEWIGAIYPGNGDTSYNQKFKGKATLTADKSSSTAYMQLSSLTSEDSAVYYCARSTYYGGDWYFNVWGAGTTVTVSAASTKGPQVQLVESGGGVVQPGRSLRLSCAASGFTFSSYGMHWVRQAPGKGLEWVAVISYEESNRYHADSVKGRFTISRDNSKITLYLQMNSLRTEDTAVYYCARDGGIAAPGPDYWGQGTLVTVSS
VL: QIVLSQSPAILSPSPGEKVTMTCRASSSVSYIHWFQQKPGSSPKPWIYATSNLASGVPVRFSGSGSGTSYSLTISRVEAEDAATYYCQQWTSNPPTFGGGTKLEIKRTVAAPDIVMTQSPLSLTVTPGEPASISCRSSQSLLYSNGYNYLDWYLQKPGQSPQVLISLGSNRASGVPDRFSGSGSGTDFTLKISRVEAEDVGVYYCMQARQTPFTFGPGTKVDIRR
notes: Outer AB001, inner AB009; HC vector V1 (wild-type hIgG1 constant), LC vector V2 (kappa constant); also called DVD009H; DVD009L
- EC50 [6]: 3.55 nM

B8: DVD010 (CD-40 and CD-20 DVD-Ig) (bispecific antibody, IgG1)
VH: QVQLVESGGGVVQPGRSLRLSCAASGFTFSSYGMHWVRQAPGKGLEWVAVISYEESNRYHADSVKGRFTISRDNSKITLYLQMNSLRTEDTAVYYCARDGGIAAPGPDYWGQGTLVTVSSASTKGPQVQLQQPGAELVKPGASVKMSCKASGYTFTSYNMHWVKQTPGRGLEWIGAIYPGNGDTSYNQKFKGKATLTADKSSSTAYMQLSSLTSEDSAVYYCARSTYYGGDWYFNVWGAGTTVTVSA
VL: DIVMTQSPLSLTVTPGEPASISCRSSQSLLYSNGYNYLDWYLQKPGQSPQVLISLGSNRASGVPDRFSGSGSGTDFTLKISRVEAEDVGVYYCMQARQTPFTFGPGTKVDIRRTVAAPQIVLSQSPAILSPSPGEKVTMTCRASSSVSYIHWFQQKPGSSPKPWIYATSNLASGVPVRFSGSGSGTSYSLTISRVEAEDAATYYCQQWTSNPPTFGGGTKLEIKR
notes: Outer AB009, inner AB001; HC vector V1 (wild-type hIgG1 constant), LC vector V2 (kappa constant); also called DVD010H; DVD010L
- EC50 [7]: 0.82 nM
